Reference: paper PMC4931238

Experiments:
[1] = target: BG505 SOSIP.664 gp140 trimer (HIV-1 clade A BG505); assay: SEC; Superdex 200 10/300 GL column, after GNL purification
[2] = target: gp120Sht-LS (clade-A BG505 gp120 fused to lumazine synthase) (HIV-1 clade A BG505 | Aquifex aeolicus); assay: native gel or EMSA

| Substance | stoichiometry N [1] | stoichiometry N [2] |
| --- | --- | --- |
| BG505 SOSIP.664 gp140 trimer (complex) | 3 |  |
| gp120Sht-LS (clade-A BG505 gp120 fused to lumazine synthase) |  | 5 |
